Residue numbers refer to the chain shown, from its start.
T1: huCLL1-K244-Avi-Tev-His (human, UniProt Q5QGZ9 65-265)
T1 construct: extracellular domain
T1 sequence (looked up): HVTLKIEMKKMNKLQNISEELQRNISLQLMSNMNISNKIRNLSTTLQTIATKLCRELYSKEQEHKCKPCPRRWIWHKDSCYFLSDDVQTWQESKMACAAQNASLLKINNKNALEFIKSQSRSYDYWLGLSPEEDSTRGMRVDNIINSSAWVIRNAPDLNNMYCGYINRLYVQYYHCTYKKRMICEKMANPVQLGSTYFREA

T2: huCLL1-Q244-Avi-Tev-His (human, UniProt Q5QGZ9 65-265)
T2 construct: extracellular domain; also called CLL-1 K244Q
T2 sequence (looked up): T1 sequence (looked up) with K180Q

B1: Polypeptide No. 176 (scFv, V domains shown)
VH: QVQLVQSGAEVKKPGASVKVSCKASGGSFTSYYIHWVRQAPGQGLEWVGWMNPNSGNTGYAQKFQGRVTMTRDTSTSTVYMELSSLRSEDTAVYYCARGATDDAFDIWGQGTMVTVSS
VL: DIQMTQSPSSLSASVGDRVTITCRASQNIDTWLAWYQQKPGKAPKLLIYDGSNLEAGVPSRFSGSGSGTDFTLTISSLQPEDFATYYCQQSYNTPITFGQGTRLEIKR
notes: scFv
B2: Polypeptide No. 163 (scFv, V domains shown)
VH: QVQLVQSGAEVKKPGASVKVSCKASGYTFTSYYMQWVRQAPGQGLEWMGWMNPNSGNTGYAQKFQGRVTMTRDTSTSTVYMELSSLRSEDTAVYYCARALYGDYLDIWGQGTTVTVSS
VL: DIQMTQSPSSLSASVGDRVTITCRASQPIATWLAWYQQKPGKAPKLLIYDTSSLQSGVPSRFSGSGSGTDFTLTISSLQPEDFATYYCQQSYSLPLGFGQGTKVEIKR
notes: scFv
B3: Polypeptide No. 172 (scFv, V domains shown)
VH: B2 VH with T30S, S31D, M34V, Q35H, A99G, Y101T, Y104Q, L105F, I107Y, T113L
VL: not shown
notes: scFv
B4: Polypeptide No. 169 (scFv, V domains shown)
VH: QVQLVQSGAEVKKPGASVKVSCKASGYTFTNDYIHWVRQAPGQGLEWMGWMSPNSGKTGFAQKFQGRVTMTRDTSTSTVYMELSSLRSEDTAVYYCAKDNSSGWYFDLWGRGTLVTVSS
VL: DIQMTQSPSSLSASVGDRVTITCRVSQGISSYLAWYQQKPGKAPKLLIYDASNLETGVPSRFSGSGSGTDFTLTISSLQPEDFATYYCQQYDTLPITFGQGTRLEIKR
notes: scFv
B5: Polypeptide No. 155 (scFv, V domains shown)
VH: QVQLVQSGAEVKKPGASVKVSCKASGYTFTSYDINWVRQAPGQGLEWMGWMNPSSGDSGYAQKFQGRVTMTRDTSTSTVYMELSSLRSEDTAVYYCARPERSDAFDIWGQGTTVTVSS
VL: DIQMTQSPSSLSASVGDRVTITCRASQSIGPWLAWYQQKPGKAPKLLIYDASNLEAGVPSRFSGSGSGTDFTLTISSLQPEDFATYYCQQSFSSPLTFGGGTKVEIKR
notes: scFv
B6: Polypeptide No. 166 (scFv, V domains shown)
VH: QVQLVQSGAEVKKPGASVKVSCKASGYTFESYDMNWVRQAPGQGLEWMGWIDPHSGDTNFAQKFQGRVTMTRDTSTSTVYMELSSLRSEDTAVYYCARADYGGNADYWGQGTLVTVSS
VL: B5 VL with S28G, G30S, P31N, A56T, F92Y, S94T, L96Y, G100Q
notes: scFv
B7: Polypeptide No. 171 (scFv, V domains shown)
VH: QVQLVQSGAEVKKPGASVKVSCKASGYTFTDYYIHWVRQAPGQGLEWMGMVDPNTGNINYAQTFQGRVTMTRDTSTSTVYMELSSLRSEDTAVYYCTSGSTNDAFDIWGQGTMVTVSS
VL: B5 VL with D50E, E55A, A56S, F92Y, S94T
notes: scFv
B8: Polypeptide No. 158 (scFv, V domains shown)
VH: QVQLVQSGAEVKKPGASVKVSCKASGDSFSSYGISWVRQAPGQGLEWMGWINPKSGATTSAQKFQGRVTMTRDTSTSTVYMELSSLRSEDTAVYYCARSTAFDAFDIWGQGTTVTVSS
VL: B5 VL with G30S, P31S, A56T, F92Y, S94T, G100Q
notes: scFv
B9: Polypeptide No. 165 (scFv, V domains shown)
VH: B2 VH with Y33D, M34I, Q35N, A99L, L100S, Y101S, D103Y, L105P, I107Y, T113L
VL: B2 VL with P28F, T31N, T51A, Q55E, L94T, G97T, Q100G
notes: scFv
B10: Polypeptide No. 156 (scFv, V domains shown)
VH: QVQLVQSGAEVKKPGASVKVSCKASGYTFTGYFIHWVRQAPGQGLEWMGWMNPNSGNTGYAQKFQGRVTMTRDTSTSTVYMELSSLRSEDTAVYYCARGDYADWFDPWGQGTLVTVSS
VL: B5 VL with G30S, P31T, S52F, N53T, A56T, F92Y, S94T, G100Q
notes: scFv
B11: Polypeptide No. 168 (scFv, V domains shown)
VH: QVQLVQSGAEVKKPGASVKVSCKASGYTFTNYGISWVRQAPGQGLEWMGWINPNSGGTNYAQKFQGRVTMTRDTSTSTVYMELSSLRSEDTAVYYCARVRSDDFFDYWGQGTLVTVSS
VL: B2 VL with P28S, I29V, A30N, T31H, D50A, T51A, S53T, G97T, Q100G
notes: scFv
B12: Polypeptide No. 173 (scFv, V domains shown)
VH: QVQLVQSGAEVKKPGASVKVSCKASGYTFNGYNMHWVRQAPGQGLEWMGWINPNSGDTNYAQKFQGRVTMTRDTSTSTVYMELSSLRSEDTAVYYCASLDYGDYAVYWGQGTLVTVSS
VL: B2 VL with P28S, A30S, T51A, Q55R, L94T, L96I, G97T
notes: scFv
B13: Polypeptide No. 157 (scFv, V domains shown)
VH: QVQLVQSGAEVKKPGASVKVSCKASGYTFSDYYIHWVRQAPGQGLEWMGIINPSGGSTSYAQKFQGRVTMTRDTSTSTVYMELSSLRSEDTAVYYCARGMTDDAFDIWGQGTMVTVSS
VL: B5 VL with S28G, G30S, P31S, A56T, S91T, F92Y, S93A, S94I, V104L
notes: scFv
B14: Polypeptide No. 170 (scFv, V domains shown)
VH: QVQLVQSGAEVKKPGASVKVSCKASGGSFSNHGVSWVRQAPGQGLEWMGWMNPNSGDTGYAQKFQGRVTMTRDTSTSTVYMELSSLRSEDTAVYYCARPRKDDAFAIWGQGTLVTVSS
VL: B2 VL with P28S, A30S, T31S, D50E, T51A, S53T, L94T, G97T
notes: scFv
B15: Polypeptide No. 159 (scFv, V domains shown)
VH: QVQLVQSGAEVKKPGASVKVSCKASGYSFTANYIHWVRQAPGQGLEWMGIINPSGGSTSYAQKFQGRVTMTRDTSTSTVYMELSSLRSEDTAVYYCARGNYGDYVEDWGQGTLVTVSS
VL: B5 VL with G30S, P31S, A56T, F92Y, S93G, S94T
notes: scFv
B16: Polypeptide No. 177 (scFv, V domains shown)
VH: B10 VH with G31S, F33Y, I34M, G99S, D100T, A102S, W104S, P107Y
VL: B5 VL with G30S, P31N, A56T, F92Y, S94T, G100Q, V104L
notes: scFv
B17: Polypeptide No. 160 (scFv, V domains shown)
VH: QVQLVQSGAEVKKPGASVKVSCKASGGTFTSYDINWVRQAPGQGLEWMGWINPHSGGTNYAQKFQGRVTMTRDTSTSTVYMELSSLRSEDTAVYYCARLVGGDAFDIWGQGTMVTVSS
VL: DIQMTQSPSSLSASVGDRVTITCRASQSISSWLAWYQQKPGKAPKLLIYAASSLQGGVPSRFSGSGSGTDFTLTISSLQPEDFATYYCQQGYTTPLTFGPGTKVDIKR
notes: scFv
B18: Polypeptide No. 161 (scFv, V domains shown)
VH: QVQLVQSGAEVKKPGASVKVSCKASGYTFTSYDINWVRQAPGQGLEWMGMINPNSGGTSYAQKFQGRVTMTRDTSTSTVYMELSSLRSEDTAVYYCARELLGESFDYWGQGTLVTVSS
VL: B17 VL with S28G, W32Y, A50G, S53I, G56S, G91S, T93S, P95S, L96F
notes: scFv
B19: Polypeptide No. 167 (scFv, V domains shown)
VH: B11 VH with N31S, G33Y, I34M, S35H, V99G, R100T, S101T, D102G, F104D
VL: B17 VL with S28D, S31T, G56S, G91S, T93S, T94I, L96P
notes: scFv
B20: Polypeptide No. 174 (scFv, V domains shown)
VH: EVQLLESGGGLVQPGGSLRLSCAASGFIFRDHWMHWVRQAPGKGLEWVSSIDFSTGYIYYADSVKGRFTISRDNSKNTLYLQMNSLRAEDTAVYYCARDPWGDGDFDYWGRGTLVTVSS
VL: B17 VL with G56S, G91T, L96Y, P100Q, K103R, V104L, D105E
notes: scFv
B21: Polypeptide No. 164 (scFv, V domains shown)
VH: QVQLVQSGAEVKKPGASVKVSCKASGYTFTAHYIHWVRQAPGQGLEWMGIINPNGGRTTYAQKFQGRVTMTRDTSTSTVYMELSSLRSEDTAVYYCARDSDFWSGYYSDYYYGMDVWGQGTTVTVSS
VL: DIQMTQSPSSLSASVGDRVTITCQASQDISNFLNWYQQKPGKAPKLLIYATSTLQSGVPSRFSGSGSGTDFTLTISSLQPEDFATYYCQQSYTTEWTFGQGTKVEIKR
notes: scFv
B22: Polypeptide No. 175 (scFv, V domains shown)
VH: QVQLVQSGAEVKKPGASVKVSCKASGYTFTSYDIHWVRQAPGQGLEWMGWINPNSGNTGYAQKFQGRVTMTRDTSTSTVYMELSSLRSEDTAVYYCAGGPDVDAAMVLDYWGQGTLVTVSS
VL: DIQMTQSPSSLSASVGDRVTITCQASQDISNYLNWYQQKPGKAPKLLIYDASNLETGVPSRFSGSGSGTDFTLTISSLQPEDFATYYCQQADGFPPTFGGGTKVEIKR
notes: scFv
B23: Polypeptide No. 162 (scFv, V domains shown)
VH: B11 VH with Y60F, V99G, R100T, S101N, D102G, F104E, F105L
VL: not shown
notes: scFv

target: T1, huCLL1-K244-Avi-Tev-His; assay: BLI

Row | Binder | binding result
1 | B1 | binds
2 | B2 | binds
3 | B3 | binds
4 | B4 | binds
5 | B5 | binds
6 | B6 | binds
7 | B7 | binds
8 | B8 | binds
9 | B9 | binds
10 | B10 | binds
11 | B11 | binds
12 | B12 | binds
13 | B13 | binds
14 | B14 | binds
15 | B15 | binds
16 | B16 | binds
17 | B17 | binds
18 | B18 | binds
19 | B19 | binds
20 | B20 | binds
21 | B21 | binds
22 | B22 | binds
23 | B23 | binds

target: T2, huCLL1-Q244-Avi-Tev-His; assay: BLI

Row | Binder | binding result
24 | B1 | binds
25 | B2 | binds
26 | B3 | binds
27 | B4 | binds
28 | B5 | binds
29 | B6 | binds
30 | B7 | binds
31 | B8 | binds
32 | B9 | binds
33 | B10 | binds
34 | B11 | binds
35 | B12 | binds
36 | B13 | binds
37 | B14 | binds
38 | B15 | binds
39 | B16 | binds
40 | B17 | binds
41 | B18 | binds
42 | B19 | binds
43 | B20 | binds
44 | B21 | binds
45 | B22 | binds
46 | B23 | binds
